Consider one molecule from US20230235032A1 (published 2023).

This assay addresses T1, human α-CGRP (1-37, WT) (human, not fully specified; C-terminal amide; N-terminally biotinylated when captured on the chip; 125I-labelled in the radioligand assay).
T1 construct: also called full length human α-CGRP
T1 peptide: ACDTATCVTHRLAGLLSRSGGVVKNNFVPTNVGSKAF
The assay can be described thus: Biacore competition: 50 nM G1 Fab + 10 uM peptide, over human α-CGRP on SA chip. The protocol: All Biacore assays were conducted in HBS-EP running buffer (10 mM HEPES pH 7.4, 150 mM NaCl, 3 mM EDTA, 0.005% v/v polysorbate P20). CGRP surfaces were prepared by diluting the N-biotinylated CGRP to a concentration of less than 0.001 mg/mL into HBS-EP buffer and injecting it across the SA sensor chip using variable contact times. […] Samples were typically injected for 1 minute at 100 μL/min and dissociation times of at least 10 minutes were allowed. […] An entire titration series (typically generated in duplicate) was fit globally to a 1:1 Langmuir binding model using the BIAevaluation program. This returned a unique pair of association and dissociation kinetic rate constants (respectively, kₒₙ and koff) for each binding interaction, whose ratio gave the equilibrium dissociation constant (KD=koff/kₒₙ).
(SPR reads the build-up and loss of mass on a sensor chip optically.)

B1: anti-CGRP antibody G1, Fab fragment (Fab, V domains shown)
VH: EVQLVESGGGLVQPGGSLRLSCAASGFTFSNYWISWVRQAPGKGLEWVAEIRSESDASATHYAEAVKGRFTISRDNAKNSLYLQMNSLRAEDTAVYYCLAYFDYGLAIQNYWGQGTLVTVSS
VL: EIVLTQSPATLSLSPGERATLSCKASKRVTTYVSWYQQKPGQAPRLLIYGASNRYLGIPARFSGSGSGTDFTLTISSLEPEDFAVYYCSQSYNYPYTFGQGTKLEIK
notes: Fab expressed in E. coli; the vector adds the CH1 constant domain of human IgG2 (Ig gamma-2 chain C region, P01859) and the human kappa light chain constant domain (CAA09181); purified on Ni-NTA, tag not described
Turning to B1, the “percentage of binding blocked by competing peptide” value worked out at 100%.
